Results: US20150175992A1

Tests used:
Assay in all cases: cell-based or functional assay
[1] = target: Bacillus subtilis XynA variant G13Y/K99Y/T104W/T110A/Y113D/N114F/R122F/K154R/N159D/Q175L (Bacillus subtilis) (UniProt P18429)
[2] = target: Bacillus subtilis XynA variant G13Y/K99Y/T104W/T110A/Y113D/N114Y/R122F/K154R/N159D/Q175K (Bacillus subtilis) (UniProt P18429)
[3] = target: Bacillus subtilis XynA variant G13Y/T110A/Y113D/R122D/Q175L (Bacillus subtilis) (UniProt P18429)
[4] = target: Bacillus subtilis XynA variant G13Y/T110A/Y113D/R122D/S162D/Q175L (Bacillus subtilis) (UniProt P18429)
[5] = target: Bacillus subtilis XynA variant G13Y/K99Y/T104W/T110A/Y113D/N114D/R122F/K154R/N159D/Q175K (Bacillus subtilis) (UniProt P18429)
[6] = target: Bacillus subtilis XynA variant G13Y/K99Y/T104W/T110A/Y113D/N114Y/R122F/K154R/N159D/Q175L (Bacillus subtilis) (UniProt P18429)
[7] = target: Bacillus subtilis XynA variant D11F/R122D/T110A/Y113A (Bacillus subtilis) (UniProt P18429)
[8] = target: Bacillus subtilis XynA wildtype xylanase (SEQ ID No. 1) (Bacillus subtilis) (UniProt P18429)
[9] = target: Bacillus subtilis XynA variant G13Y/K99Y/T104W/T110A/Y113D/R122F/K154R/N159D/Y166F/Q175L (Bacillus subtilis) (UniProt P18429)
[10] = target: Bacillus subtilis XynA variant G13Y/T110A/Y113D/R122D/S162E/Q175L (Bacillus subtilis) (UniProt P18429)
[11] = target: Bacillus subtilis XynA variant G13Y/G34K/T110A/Y113D/R122D/Q175L (Bacillus subtilis) (UniProt P18429)
[12] = target: Bacillus subtilis XynA variant G13Y/K99Y/T104W/T110A/Y113D/R122F/K154R/N159D/Q175/V81I (Bacillus subtilis) (UniProt P18429)
[13] = target: Bacillus subtilis XynA variant G13Y/T110A/Y113D/R122D/W164F/Q175L (Bacillus subtilis) (UniProt P18429)
[14] = target: Bacillus subtilis XynA variant G13Y/I77M/K99Y/T104W/T110A/Y113D/R122F/K154R/N159D/Q175L (Bacillus subtilis) (UniProt P18429)
[15] = target: Bacillus subtilis XynA variant G13Y/I77L/K99Y/T104W/T110A/Y113D/R122F/K154R/N159D/Q175L (Bacillus subtilis) (UniProt P18429)
[16] = target: Bacillus subtilis XynA variant G13Y/K99Y/T104W/T110A/Y113D/R122F/K154R/N159D/Q175K (Bacillus subtilis) (UniProt P18429)
[17] = target: Bacillus subtilis XynA variant G13Y/K99Y/T104W/T110A/Y113D/N114D/R122F/K154R/N159D/Q175L (Bacillus subtilis) (UniProt P18429)
[18] = target: Bacillus subtilis xylanase variant BS3 (wildtype with D11F/R122D mutations) (Bacillus subtilis) (UniProt P18429)
[19] = target: Bacillus subtilis XynA variant G13Y/T110A/Y113D/R122D/K154R/N159D/Q175L (Bacillus subtilis) (UniProt P18429)
[20] = target: Bacillus subtilis XynA variant G13Y/K99Y/T104W/T110A/Y113D/I118V/R122F/K154R/N159D/Q175L (Bacillus subtilis) (UniProt P18429)
[21] = target: Bacillus subtilis XynA variant G13Y/T110A/Y113D/R122F/Q175L (Bacillus subtilis) (UniProt P18429)
[22] = target: Bacillus subtilis XynA variant G13Y/I77Y/K99Y/T104W/T110A/Y113D/R122F/K154R/N159D/Q175L (Bacillus subtilis) (UniProt P18429)
[23] = target: Bacillus subtilis XynA variant G13Y/I77V/K99Y/T104W/T110A/Y113D/R122F/K154R/N159D/Q175L (Bacillus subtilis) (UniProt P18429)
[24] = target: Bacillus subtilis XynA variant G13Y/K99Y/T104W/T110A/Y113D/R122F/K154R/N159D/Q175L (Bacillus subtilis) (UniProt P18429)
[25] = target: Bacillus subtilis XynA variant G13Y/I77S/K99Y/T104W/T110A/Y113D/R122F/K154R/N159D/Q175L (Bacillus subtilis) (UniProt P18429)
[26] = target: Bacillus subtilis XynA variant D11F/R122D/T110A (Bacillus subtilis) (UniProt P18429)

% Activity @ 50 XIU/ml (residual xylanase activity) [1]: 79%
% Activity @ 50 XIU/ml (residual xylanase activity) [2]: 84%
% Activity @ 33.5 XIU/ml (residual xylanase activity) [3]: 50%
% Activity @ 50 XIU/ml (residual xylanase activity) [4]: 40%
% Activity @ 50 XIU/ml (residual xylanase activity) [5]: 79%
% Activity @ 50 XIU/ml (residual xylanase activity) [6]: 78%
% Activity @ 5.6 XIU/ml (residual xylanase activity) [7]: 99%
% Activity @ 5.6 XIU/ml (residual xylanase activity) [8]: 29%
% Activity @ 50 XIU/ml (residual xylanase activity) [9]: 68%
% Activity @ 50 XIU/ml (residual xylanase activity) [10]: 44%
% Activity @ 50 XIU/ml (residual xylanase activity) [11]: 97%
% Activity @ 50 XIU/ml (residual xylanase activity) [12]: 46%
% Activity @ 50 XIU/ml (residual xylanase activity) [13]: 29%
% Activity @ 50 XIU/ml (residual xylanase activity) [14]: 46%
% Activity @ 50 XIU/ml (residual xylanase activity) [15]: 75%
% Activity @ 50 XIU/ml (residual xylanase activity) [16]: 72%
% Activity @ 50 XIU/ml (residual xylanase activity) [17]: 79%
% Activity @ 5.6 XIU/ml (residual xylanase activity) [18]: 100%
% Activity @ 33.5 XIU/ml (residual xylanase activity) [18]: 100%
% Activity @ 50 XIU/ml (residual xylanase activity) [18]: 95%
% Activity @ 50 XIU/ml (residual xylanase activity) [19]: 32%
% Activity @ 50 XIU/ml (residual xylanase activity) [20]: 79%
% Activity @ 50 XIU/ml (residual xylanase activity) [21]: 65%
% Activity @ 50 XIU/ml (residual xylanase activity) [22]: 37%
% Activity @ 50 XIU/ml (residual xylanase activity) [23]: 45%
% Activity @ 50 XIU/ml (residual xylanase activity) [24]: 64%
% Activity @ 50 XIU/ml (residual xylanase activity) [25]: 20%
% Activity @ 5.6 XIU/ml (residual xylanase activity) [26]: 98%
% Activity @ 33.5 XIU/ml (residual xylanase activity) [26]: 100%
Substance: crude inhibitor preparation (containing both TAXI and XIP) from wheat (Triticum aestivum) flour
